Results: US7109015B2, “Removal of N-terminal methionine from proteins by engineered methionine aminopeptidase” (Academia Sinica, priority 2004, dated 2006)
Substitutions are numbered along the chain they refer to. In names and notes the source's numbering stands. Several values for one entry are separate records, joined by “and”; a condition that tells them apart may be missing. Identical values can stand only once. Like-named read-outs stand apart in the source and are kept apart here.

Tests used:
Met-tagged onconase = assay: In vivo catalytic activity of MetAPs co-expressed with Met-tagged onconase in E. coli BL21(DE3); N-terminus by Edman degradation; assay type: cell-based; details: in vivo in E. coli
Source text: Residues Tyr168, Met206 and Gln233 in the putative substrate-binding site of E. coli MetAP were mutated by site-directed mutagenesis based on the crystal structure and amino acid sequence alignment of MetAPs (Ben-Bassat et al., 1987; Lowther et al., 1999; Walker et al., 1999). For the expression of secretory ribonucleases, the ribonuclease gene was cloned and expressed as described previously (Huang et al., 1998).
Most of the co-expressed target protein, e.g., onconase or RC-RNase L1, existed in insoluble cell lysate. They were denatured, renatured and purified as described previously (Liao et al., 2003). The purified ribonucleases were stored in 20 mM sodium phosphate, pH 7.0, for pyroglutamate formation at the N-terminus. Alternatively, the ribonuclease secreted into culture medium through pe1B system was concentrated and purified to electrophoretical homogeneity at a yield of 1˜5 mg per 1 liter of culture (Huang et al., 1998).

synthetic oligopeptides [1] = assay type: biochemical; details: for Specific activity (unit/mg): 4 mM oligopeptide, pH 7.5, 37° C.
Protocol: (§1) The oligopeptide substrates used in this experiment were synthesized on the 432A Synergy peptide synthesizer (Applied Biosystems, Foster, Calif., USA). The enzymatic activity of purified MetAP was assayed as described by Ben-Bassat et al., 1987. Briefly, the diluted MetAP enzyme in 10 μl was added to 90 μl of the substrate solution containing 4 mM oligopeptide, 0.1 M potassium phosphate buffer, pH 7.5 and 0.2 mM CoCl2, incubated at 37° C. for 10 min and stopped in boiling water for 2 min. After addition of 0.9 ml of color development mixture containing 0.2 mg of L-amino acid oxidase, 0.03 mg of horseradish peroxidase and 0.2 mg of o-dianisidine in 0.1 M Tris-HCl, pH 7.4, the mixtures were incubated for 10 min at 37° C., and the optical density at 440 nm was recorded. One unit of activity is defined as 1 μmol of amino acids produced per min under the assay conditions and the pure Met was used as standard. The N-terminal residues of the MetAP-treated oligopeptide were further verified by Edman degradation.

synthetic oligopeptides [2] = biological target: T1, synthetic oligopeptides (Escherichia coli, UniProt P0AE18, M206T/Q233G/Y168G); assay type: biochemical; details: dodecapeptides, in vitro
T1 construct: […]; made in house; host or cells: E. coli BL21(DE3)
T1 sequence (P0AE18 2-264 Y168G/M206T/Q233G): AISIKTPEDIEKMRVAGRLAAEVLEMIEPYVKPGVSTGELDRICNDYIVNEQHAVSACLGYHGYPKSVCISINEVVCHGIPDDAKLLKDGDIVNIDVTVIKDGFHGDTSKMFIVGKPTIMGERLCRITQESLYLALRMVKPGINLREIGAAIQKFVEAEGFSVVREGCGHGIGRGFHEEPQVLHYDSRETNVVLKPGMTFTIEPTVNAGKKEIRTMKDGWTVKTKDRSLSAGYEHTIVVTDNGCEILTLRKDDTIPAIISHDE
Protocol: as §1

[3] = E. coli MetAP mutations; Chiu et al. 1999; cited from earlier work

B1: MetAP-GTG (protein)
chain: T1 sequence (P0AE18 2-264 Y168G/M206T/Q233G)
Catalytic activity (%): percent of penultimate residue removed (Met-tagged onconase; substrate MAA-Onc): 30% | Catalytic activity (%): removal of N-terminal Met (Met-tagged onconase; substrate MAA-Onc): 100% | Catalytic activity (%): percent of penultimate residue removed (Met-tagged onconase; substrate MAG-Onc): 16% | Catalytic activity (%): removal of N-terminal Met (Met-tagged onconase; substrate MAG-Onc): 86% | Catalytic activity (%): removal of N-terminal Met (Met-tagged onconase; substrate MAL-Onc): 100% | Catalytic activity (%): removal of N-terminal Met (Met-tagged onconase; substrate MAM-Onc): 96% | Catalytic activity (%): removal of N-terminal Met (Met-tagged onconase; substrate MDD-Onc): 27% | Catalytic activity (%): removal of N-terminal Met (Met-tagged onconase; substrate MED-Onc): 35% | Catalytic activity (%): percent of penultimate residue removed (Met-tagged onconase; substrate MFA-Onc): 100% | Catalytic activity (%): removal of N-terminal Met (Met-tagged onconase; substrate MFA-Onc): 36% | Catalytic activity (%): removal of N-terminal Met (Met-tagged onconase; substrate MFD-Onc): 23% | Catalytic activity (%): removal of N-terminal Met (Met-tagged onconase; substrate MIA-Onc): 96% | Catalytic activity (%): removal of N-terminal Met (Met-tagged onconase; substrate MID-Onc): 94% | Catalytic activity (%): removal of N-terminal Met (Met-tagged onconase; substrate MKA-Onc): 9% | Catalytic activity (%): removal of N-terminal Met (Met-tagged onconase; substrate MKD-Onc): 7% | Catalytic activity (%): percent of penultimate residue removed (Met-tagged onconase; substrate MLA-Onc): 80% | Catalytic activity (%): removal of N-terminal Met (Met-tagged onconase; substrate MLA-Onc): 100% | Catalytic activity (%): removal of N-terminal Met (Met-tagged onconase; substrate MLD-Onc): 90% and 98% | Catalytic activity (%): percent of penultimate residue removed (Met-tagged onconase; substrate MLG-Onc): 46% | Catalytic activity (%): removal of N-terminal Met (Met-tagged onconase; substrate MLG-Onc): 87% | Catalytic activity (%): percent of penultimate residue removed (Met-tagged onconase; substrate MLH-Onc): 51% | Catalytic activity (%): removal of N-terminal Met (Met-tagged onconase; substrate MLH-Onc): 100% | Catalytic activity (%): percent of penultimate residue removed (Met-tagged onconase; substrate MLL-Onc): 55% | Catalytic activity (%): removal of N-terminal Met (Met-tagged onconase; substrate MLL-Onc): 93% | Catalytic activity (%): removal of N-terminal Met (Met-tagged onconase; substrate MLM-Onc): 100% | Catalytic activity (%): percent of penultimate residue removed (Met-tagged onconase; substrate MLN-Onc): 68% | Catalytic activity (%): removal of N-terminal Met (Met-tagged onconase; substrate MLN-Onc): 100% | Catalytic activity (%): percent of penultimate residue removed (Met-tagged onconase; substrate MLP-Onc): 95% | Catalytic activity (%): removal of N-terminal Met (Met-tagged onconase; substrate MLP-Onc): 55% | Catalytic activity (%): percent of penultimate residue removed (Met-tagged onconase; substrate MLS-Onc): 69% | Catalytic activity (%): removal of N-terminal Met (Met-tagged onconase; substrate MLS-Onc): 87% | Catalytic activity (%): percent of penultimate residue removed (Met-tagged onconase; substrate MLT-Onc): 54% | Catalytic activity (%): removal of N-terminal Met (Met-tagged onconase; substrate MLT-Onc): 72% | Catalytic activity (%): percent of penultimate residue removed (Met-tagged onconase; substrate MLV-Onc): 69% | Catalytic activity (%): removal of N-terminal Met (Met-tagged onconase; substrate MLV-Onc): 97% | Catalytic activity (%): removal of N-terminal Met (Met-tagged onconase; substrate MQD-Onc): 97% | Catalytic activity (%): percent of penultimate residue removed (Met-tagged onconase; substrate MQM-Onc): 100% | Catalytic activity (%): removal of N-terminal Met (Met-tagged onconase; substrate MQM-Onc): 100% | Catalytic activity (%): value in parenthesis after Met and Gln removal (third cleavage site, second Met) (Met-tagged onconase; substrate MQM-Onc): 73% | Catalytic activity (%): percent of penultimate residue removed (Met-tagged onconase; substrate MQN-Onc): 90% | Catalytic activity (%): removal of N-terminal Met (Met-tagged onconase; substrate MQN-Onc): 83% | Catalytic activity (%): percent of penultimate residue removed (Met-tagged onconase; substrate MQP-Onc): 100% | Catalytic activity (%): removal of N-terminal Met (Met-tagged onconase; substrate MQP-Onc): 54% | Catalytic activity (%): percent of penultimate residue removed (Met-tagged onconase; substrate MQT-Onc): 79% | Catalytic activity (%): removal of N-terminal Met (Met-tagged onconase; substrate MQT-Onc): 86% | Catalytic activity (%): removal of N-terminal Met (Met-tagged onconase; substrate MRA-Onc): 8% | Catalytic activity (%): removal of N-terminal Met (Met-tagged onconase; substrate MRD-Onc): 4% | Catalytic activity (%): percent of penultimate residue removed (Met-tagged onconase; substrate MWA-Onc): 89% | Catalytic activity (%): removal of N-terminal Met (Met-tagged onconase; substrate MWA-Onc): 100% | Catalytic activity (%): removal of N-terminal Met (Met-tagged onconase; substrate MWD-Onc): 78% | Catalytic activity (%): removal of N-terminal Met (Met-tagged onconase; substrate MWD-Onc, listed as GTG): much higher activities | Catalytic activity (%): removal of N-terminal Met (Met-tagged onconase; substrate MYA-Onc): 22% | Catalytic activity (%): removal of N-terminal Met (Met-tagged onconase; substrate MYD-Onc): 20% | Catalytic activity (%): removal of N-terminal Met (Met-tagged onconase; substrate MYD-Onc, listed as GTG): much higher activities | In vitro catalytic activity (synthetic oligopeptides [1]; oligopeptides with Gln at the penultimate residue): the most activity | Specific activity (unit/mg) (synthetic oligopeptides [1]; substrate MADY (SEQ ID NO:7)): 1.68 ± 0.51 unit/mg | Specific activity (unit/mg) (synthetic oligopeptides [1]; substrate MADYLT (SEQ ID NO:8)): 2.50 ± 0.42 unit/mg | Specific activity (unit/mg) (synthetic oligopeptides [1]; substrate MQDYLT (SEQ ID NO:9)): 0.23 ± 0.01 unit/mg | Specific activity (unit/mg) (synthetic oligopeptides [1]; substrate […] (SEQ ID NO:5)): 9.80 ± 0.26 unit/mg | Specific activity (unit/mg) (synthetic oligopeptides [1]; substrate […] (SEQ ID NO:6)): 4.24 ± 0.14 unit/mg | Specific activity on […] as % of that for […] (synthetic oligopeptides [2]): 43%

B2: W221L: E. coli MetAP mutation in the putative substrate-binding pocket (protein, UniProt P0AE18 2-264, looked up, variant W221L)
Methionine aminopeptidase: T1 sequence (P0AE18 2-264 Y168G/M206T/Q233G) with G167Y, T205M, W220L, G232Q
Catalytic activity, % activity of the wild type [3]: 27%
